Assay results taken from PMC6718452.

Biological target: FITC-labeled amyloid-β (Aβ), aggregated into amyloid-derived diffusible ligands (ADDLs)
Assay: SEC; FITC-labeled Aβ aggregated by the Freir protocol (ADDLs); solvent PBS

- stoichiometry N: 2
Substance: FITC-labeled amyloid-β (Aβ), aggregated into amyloid-derived diffusible ligands (ADDLs) (peptide)
